Data published in US10556936B2, “Immunogenic proteins and fragments thereof from allergenic mites” (ALK-ABELLÓ A/S, priority 2016, dated 2020).

B1: A017: house dust mite protein; SEQ ID NO: 21 (Der f), 25 (Der p), 313 (Blo t) (protein)
chain: MSSSSGKKYDFSGKVALVTGSSSGIGAAIALQFAQYGAQVTITGRDAAALESVAKRIEAESGHQPLQIVGNLLDQSLPAKLIDGTISKYGRLDFLVNNAGFSTQHRDIHDEKLMEAFDQVYGLNVRAVVQLSQLAATHLEKSKGNIINISSNLSMMPVHIIYSSSKAALDMITKTMAMEFGKKGVRVNSINPGPVATQFMRSLGMPVTFLKENEEFVKELTLLKFVAQPVEIANLASFLASDDARNMTGSIVVNDTGSLLAPRVDFKKLDEIKKK
B2: A018: house dust mite protein; SEQ ID NO: 5 (Der f), 6 (Der p), 314 (Blo t) (protein)
chain: MVKAVVVLKGDPNVSGTIFFEQQDNGPVKVTGSVQGLKPGLHGFHVHEFGDNTNGCTSAGAHYNPLNKTHGAPNDEERHVGDLGNIEANDKGVANVVIEDSLISLTGEKSIVGRSLVVHADPDDLGRGGHELSKTTGNAGGRLVCGVIGVTK
B3: A019: house dust mite protein; SEQ ID NO: 1 (Der f), 4 (Der p), 315 (Blo t) (protein)
chain: QVYCNGAAIVSAARSQIGVPYSWGGGGIHGKSRGIGEGANTVGFDCSGLAQYSVYQGTHKVLARVASGQYSDPKCHHVAYGSHQPGDLVFFGNPIHHVGIVSAHGRMINAPHTGTNVREENIWSDHIANVARCW
B4: A020: house dust mite protein; SEQ ID NO: 15 (Der f), 16 (Der p); Blo t SEQ ID NO: 316 printed as A0019 (protein)
chain: MSKPIFYYHPFSGPCRTVSTVAKILNVDMEMKKLDLLTKEHLNPEFLKVNPFHKVPTFVDSDGFVVDESRVIAMYLVESRKPDSFLYPKNDLKKRIQIDRWLHYDINLSTTISAPMFCVFRGHQVQDYQVEQGKETLKTLDGVMQSFEGKFLTGADQFTLADIAMYFSLNTMEVYPKYFKFDDYPNLKSWYHRVAEALKQYDTEGTIPKAIETMKQFIQQRAAEAEKH

System: basophils in whole blood from HDM allergic donors
Assay: Basophil Activation Test (BAT)
Type: cell-based, human
Settings: 1 ng/ml; blood from HDM allergic individuals (n=14)
Procedure: Basophil Activation Test (BAT) was used as a predictive in vitro assay for indication of safety/immediate hypersensitivity reactions. The BAT assay is a widely used diagnostic test that is also used for evaluation of allergenicity of allergen derived components. In short: whole blood from HDM allergic donors was stimulated for 1 h with the proteins, and the increased expression of activation markers on the surface of basophils were measured by flow cytometry. The BAT test was carried out using different concentrations of the proteins and the allergens Der p 2 and Der p 1 was used as controls and tested in the same concentration rates.
(§1) This example relates to the further testing of immunogenicity of the proteins identified in Example 1. Their ability to react with IgE antibodies in HDM allergic individuals, to stimulate in vitro T cell proliferation of HDM allergic individuals and non-allergics, and to stimulate ex vivo cytokine production of HDM allergic individuals and non-allergics. The following tests were used: • Basophil Activation Test (BAT) was used as a predictive in vitro assay for indication of safety/immediate hypersensitivity reactions. BAT test was carried out using blood from HDM allergic individuals (n=14), and by use of different concentrations of test proteins or the major house dust mite allergens (Der p 1, Der f 1, Der p 2 or Der f 2, e.g. a concentration of 1, 10, 100 or 1000 ng/ml. • In vitro T cell reactivity determined in T cell lines obtained from HDM allergic individuals (n=30) and non-allergics (n=8): Determined by establishment of HDM specific T-cell lines according to standard methods. In short, PMBCs from HDM allergic donors were cultured for 3 weeks in the presence of house dust mite allergen extract. The responses to proteins at a concentration of 0.5 ug/ml or 2 ug/ml of the test protein or the major house dust mite allergens (Der p 1, Der f 1, Der p 2 or Der f 2) were assessed by proliferation in a standard 72 h T cell proliferation assay, as described in Henmar H et al., Clin Exp Immunol 2008; 153(3):316-23. […]. • Ex vivo stimulation of PBMC cells obtained from mite allergic patients (n=16) and non-allergics (n=6): Determined by measuring the production of the cytokines; IFN-gamma, IL-9, IL-10, IL-17 and IL-31 following stimulation with test protein in concentration up to 10 ug/ml. Freshly isolated PBMC 5×10^6/ml were cultured with a test protein for 5 days and cell supernatant were harvested and stored at −80° C. Cytokines of the supernatants were measured using ProcartaPlex Multiplex Immunoassays with MAGPIX Multiplex Reader according manufactory protocol.

Molecule	# of individuals of 14 with positive BAT test
B1	0
B2	0
B3	2
B4	0

Same assay, conditions: 10 ng/ml; blood from HDM allergic individuals (n=14)

Molecule	# of individuals of 14 with positive BAT test
B1	0
B2	0
B3	2
B4	1

Same assay, conditions: 100 ng/ml; blood from HDM allergic individuals (n=14)

Molecule	# of individuals of 14 with positive BAT test
B1	0
B2	0
B3	2
B4	1

Same assay, conditions: 1000 ng/ml; blood from HDM allergic individuals (n=14)

Molecule	# of individuals of 14 with positive BAT test
B1	0
B2	0
B3	4
B4	1

System: T cell lines obtained from HDM allergic individuals and non-allergics
Assay: In vitro T cell proliferation test in T cell lines (Example 3)
Type: cell-based, human
Settings: T cell lines from HDM allergic individuals (n=30); 0.5 or 2 ug/ml; 72 h
Description: as §1

Molecule	% responders of in-vitro T cell proliferation test, Allergic
B1	7%
B2	0%
B3	39%
B4	18%

Same assay, conditions: T cell lines from non-allergics (n=8); 0.5 or 2 ug/ml; 72 h

Molecule	% responders of in-vitro T cell proliferation test, Non-allergics
B1	0%
B2	0%
B3	13%
B4	25%

System: PBMC cells obtained from mite allergic patients and non-allergics
Assay: Ex vivo stimulation of PBMC: cytokine production (IFN-gamma, IL-9, IL-10, IL-17, IL-31)
Type: cell-based, human
Settings: HDM allergic individuals; IL-5
Description: as §1

Molecule	% HDM allergic individuals with cytokine production in ex-vivo T cell assay IL-5
B1	0%
B2	0%
B3	38%
B4	6%

Same assay, conditions: HDM allergic individuals; IL-9

Molecule	% HDM allergic individuals with cytokine production in ex-vivo T cell assay IL-9
B1	0%
B2	6%
B3	56%
B4	0%

Same assay, conditions: HDM allergic individuals; IL-10

Molecule	% HDM allergic individuals with cytokine production in ex-vivo T cell assay IL-10
B1	25%
B2	56%
B3	75%
B4	25%

Same assay, conditions: HDM allergic individuals; IL-13

Molecule	% HDM allergic individuals with cytokine production in ex-vivo T cell assay IL-13
B1	0%
B2	13%
B3	56%
B4	6%

Same assay, conditions: HDM allergic individuals; IL-17

Molecule	% HDM allergic individuals with cytokine production in ex-vivo T cell assay IL-17
B1	13%
B2	44%
B3	100%
B4	6%

Same assay, conditions: HDM allergic individuals; IL-31

Molecule	% HDM allergic individuals with cytokine production in ex-vivo T cell assay IL-31
B1	0%
B2	6%
B3	13%
B4	0%

Same assay, conditions: HDM allergic individuals; INF-g

Molecule	% HDM allergic individuals with cytokine production in ex-vivo T cell assay INF-g
B1	6%
B2	19%
B3	50%
B4	0%

Same assay, conditions: non-allergic individuals; IL-5

Molecule	% non-allergic individuals with cytokine production in ex-vivo T cell assay IL-5
B1	0%
B2	0%
B3	0%
B4	0%

Same assay, conditions: non-allergic individuals; IL-9

Molecule	% non-allergic individuals with cytokine production in ex-vivo T cell assay IL-9
B1	0%
B2	0%
B3	0%
B4	0%

Same assay, conditions: non-allergic individuals; IL-10

Molecule	% non-allergic individuals with cytokine production in ex-vivo T cell assay IL-10
B1	33%
B2	67%
B3	100%
B4	0%

Same assay, conditions: non-allergic individuals; IL-13

Molecule	% non-allergic individuals with cytokine production in ex-vivo T cell assay IL-13
B1	0%
B2	17%
B3	0%
B4	0%

Same assay, conditions: non-allergic individuals; IL-17

Molecule	% non-allergic individuals with cytokine production in ex-vivo T cell assay IL-17
B1	17%
B2	83%
B3	100%
B4	0%

Same assay, conditions: non-allergic individuals; IL-31

Molecule	% non-allergic individuals with cytokine production in ex-vivo T cell assay IL-31
B1	0%
B2	0%
B3	17%
B4	0%

Same assay, conditions: non-allergic individuals; INF-g

Molecule	% non-allergic individuals with cytokine production in ex-vivo T cell assay INF-g
B1	0%
B2	33%
B3	100%
B4	17%
